Reference: paper PMC10786891, “Massively parallel profiling of RNA-targeting CRISPR-Cas13d”

T1: EsCas13d, nuclease-dead (Eubacterium siraeum, UniProt B0MS50, R295A;H300A;R849A;H854A)
T1 sequence: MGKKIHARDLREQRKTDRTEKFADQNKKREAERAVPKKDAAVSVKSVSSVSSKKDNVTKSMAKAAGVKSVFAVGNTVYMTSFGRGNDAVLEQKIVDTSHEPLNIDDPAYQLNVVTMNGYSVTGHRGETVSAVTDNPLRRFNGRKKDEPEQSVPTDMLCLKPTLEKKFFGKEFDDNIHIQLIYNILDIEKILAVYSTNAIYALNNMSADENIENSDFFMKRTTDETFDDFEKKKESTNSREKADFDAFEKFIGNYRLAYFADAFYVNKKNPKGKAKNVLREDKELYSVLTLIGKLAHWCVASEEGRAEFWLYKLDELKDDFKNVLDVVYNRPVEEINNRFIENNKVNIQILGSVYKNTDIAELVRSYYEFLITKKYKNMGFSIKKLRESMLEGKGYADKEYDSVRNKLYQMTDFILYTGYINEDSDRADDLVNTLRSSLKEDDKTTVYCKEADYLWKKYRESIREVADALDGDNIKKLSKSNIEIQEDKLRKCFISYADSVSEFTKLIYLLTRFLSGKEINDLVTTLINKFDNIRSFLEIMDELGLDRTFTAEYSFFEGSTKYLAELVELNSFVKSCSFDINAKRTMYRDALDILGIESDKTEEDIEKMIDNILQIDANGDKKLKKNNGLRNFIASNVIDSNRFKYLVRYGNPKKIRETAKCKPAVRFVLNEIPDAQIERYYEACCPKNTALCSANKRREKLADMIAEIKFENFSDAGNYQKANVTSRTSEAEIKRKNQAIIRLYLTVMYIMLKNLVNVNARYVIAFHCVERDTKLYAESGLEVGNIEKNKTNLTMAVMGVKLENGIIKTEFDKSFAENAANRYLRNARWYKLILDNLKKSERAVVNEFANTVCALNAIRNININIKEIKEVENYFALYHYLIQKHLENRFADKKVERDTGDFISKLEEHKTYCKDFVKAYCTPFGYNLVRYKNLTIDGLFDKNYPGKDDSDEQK

B1: target 1 C7G,U11C (mixed)
RNA 1: CACCCGUGCAAAAAUGCAGGGGUCUAAAACUGAGCGGAUAACCUCUCUAUGG
RNA 2: GGGAAUGGAUCCACAUCUACGAAUUCGUACCAUAGAGAGGCUAUGCGCUCACCGAGAUCGGAAGAGCACACGU
B2: target 1 insU 3' of 5,insA 3' of 5 (mixed)
RNA 1: CACCCGUGCAAAAAUGCAGGGGUCUAAAACUGAGCGGAUAACCUCUCUAUGG
RNA 2: GGGAAUGGAUCCACAUCUACGAAUUCGUACCAUAGAGAGGUUAUCCGUACUCACCGAGAUCGGAAGAGCACACGU
B3: target 1 C7G,U19G (mixed)
RNA 1: CACCCGUGCAAAAAUGCAGGGGUCUAAAACUGAGCGGAUAACCUCUCUAUGG
RNA 2: GGGAAUGGAUCCACAUCUACGAAUUCGUACCAGAGAGAGGUUAUGCGCUCACCGAGAUCGGAAGAGCACACGU
B4: target 1 G13C,A14G (mixed)
RNA 1: CACCCGUGCAAAAAUGCAGGGGUCUAAAACUGAGCGGAUAACCUCUCUAUGG
RNA 2: GGGAAUGGAUCCACAUCUACGAAUUCGUACCAUAGAGGCGUUAUCCGCUCACCGAGAUCGGAAGAGCACACGU
B5: target 1 U10A,U19C (mixed)
RNA 1: CACCCGUGCAAAAAUGCAGGGGUCUAAAACUGAGCGGAUAACCUCUCUAUGG
RNA 2: GGGAAUGGAUCCACAUCUACGAAUUCGUACCACAGAGAGGUAAUCCGCUCACCGAGAUCGGAAGAGCACACGU
B6: target 1 U8A,G12C (mixed)
RNA 1: CACCCGUGCAAAAAUGCAGGGGUCUAAAACUGAGCGGAUAACCUCUCUAUGG
RNA 2: GGGAAUGGAUCCACAUCUACGAAUUCGUACCAUAGAGAGCUUAACCGCUCACCGAGAUCGGAAGAGCACACGU
B7: target 1 insA 3' of 22,insA 3' of 15 (mixed)
RNA 1: CACCCGUGCAAAAAUGCAGGGGUCUAAAACUGAGCGGAUAACCUCUCUAUGG
RNA 2: GGGAAUGGAUCCACAUCUACGAAUUCGUACACAUAGAGAAGGUUAUCCGCUCACCGAGAUCGGAAGAGCACACGU
B8: target 1 insA 3' of 21,insA 3' of 17 (mixed)
RNA 1: CACCCGUGCAAAAAUGCAGGGGUCUAAAACUGAGCGGAUAACCUCUCUAUGG
RNA 2: GGGAAUGGAUCCACAUCUACGAAUUCGUACCAAUAGAAGAGGUUAUCCGCUCACCGAGAUCGGAAGAGCACACGU
B9: target 1 insA 3' of 4,insG 3' of 3 (mixed)
RNA 1: CACCCGUGCAAAAAUGCAGGGGUCUAAAACUGAGCGGAUAACCUCUCUAUGG
RNA 2: GGGAAUGGAUCCACAUCUACGAAUUCGUACCAUAGAGAGGUUAUCCGCAUGCACCGAGAUCGGAAGAGCACACGU
B10: target 1 G17U,A18U (mixed)
RNA 1: CACCCGUGCAAAAAUGCAGGGGUCUAAAACUGAGCGGAUAACCUCUCUAUGG
RNA 2: GGGAAUGGAUCCACAUCUACGAAUUCGUACCAUUUAGAGGUUAUCCGCUCACCGAGAUCGGAAGAGCACACGU
B11: target 1 insU 3' of 14,insG 3' of 9 (mixed)
RNA 1: CACCCGUGCAAAAAUGCAGGGGUCUAAAACUGAGCGGAUAACCUCUCUAUGG
RNA 2: GGGAAUGGAUCCACAUCUACGAAUUCGUACCAUAGAGAUGGUUAGUCCGCUCACCGAGAUCGGAAGAGCACACGU
B12: target 1 A9C,A20U (mixed)
RNA 1: CACCCGUGCAAAAAUGCAGGGGUCUAAAACUGAGCGGAUAACCUCUCUAUGG
RNA 2: GGGAAUGGAUCCACAUCUACGAAUUCGUACCUUAGAGAGGUUCUCCGCUCACCGAGAUCGGAAGAGCACACGU
B13: target 1 A16G,A18U (mixed)
RNA 1: CACCCGUGCAAAAAUGCAGGGGUCUAAAACUGAGCGGAUAACCUCUCUAUGG
RNA 2: GGGAAUGGAUCCACAUCUACGAAUUCGUACCAUUGGGAGGUUAUCCGCUCACCGAGAUCGGAAGAGCACACGU
B14: target 1 del3,del13 (mixed)
RNA 1: CACCCGUGCAAAAAUGCAGGGGUCUAAAACUGAGCGGAUAACCUCUCUAUGG
RNA 2: GGGAAUGGAUCCACAUCUACGAAUUCGUACCAUAGAGAGUUAUCCGCCACCGAGAUCGGAAGAGCACACGU
B15: target 1 G12U,G13C (mixed)
RNA 1: CACCCGUGCAAAAAUGCAGGGGUCUAAAACUGAGCGGAUAACCUCUCUAUGG
RNA 2: GGGAAUGGAUCCACAUCUACGAAUUCGUACCAUAGAGACUUUAUCCGCUCACCGAGAUCGGAAGAGCACACGU
B16: target 1 complement block 4-14 (mixed)
RNA 1: CACCCGUGCAAAAAUGCAGGGGUCUAAAACUGAGCGGAUAACCUCUCUAUGG
RNA 2: GGGAAUGGAUCCACAUCUACGAAUUCGUACCAUAGAGUCCAAUAGGCGUCACCGAGAUCGGAAGAGCACACGU
B17: target 1 U3C,U11C (mixed)
RNA 1: CACCCGUGCAAAAAUGCAGGGGUCUAAAACUGAGCGGAUAACCUCUCUAUGG
RNA 2: GGGAAUGGAUCCACAUCUACGAAUUCGUACCAUAGAGAGGCUAUCCGCCCACCGAGAUCGGAAGAGCACACGU
B18: target 1 insA 3' of 8,insC 3' of 5 (mixed)
RNA 1: CACCCGUGCAAAAAUGCAGGGGUCUAAAACUGAGCGGAUAACCUCUCUAUGG
RNA 2: GGGAAUGGAUCCACAUCUACGAAUUCGUACCAUAGAGAGGUUAUACCGCCUCACCGAGAUCGGAAGAGCACACGU
B19: target 1 insC 3' of 18,insG 3' of 6 (mixed)
RNA 1: CACCCGUGCAAAAAUGCAGGGGUCUAAAACUGAGCGGAUAACCUCUCUAUGG
RNA 2: GGGAAUGGAUCCACAUCUACGAAUUCGUACCAUACGAGAGGUUAUCCGGCUCACCGAGAUCGGAAGAGCACACGU
B20: target 1 C2A,A20U (mixed)
RNA 1: CACCCGUGCAAAAAUGCAGGGGUCUAAAACUGAGCGGAUAACCUCUCUAUGG
RNA 2: GGGAAUGGAUCCACAUCUACGAAUUCGUACCUUAGAGAGGUUAUCCGCUAACCGAGAUCGGAAGAGCACACGU
B21: target 1 insU 3' of 17,insU 3' of 2 (mixed)
RNA 1: CACCCGUGCAAAAAUGCAGGGGUCUAAAACUGAGCGGAUAACCUCUCUAUGG
RNA 2: GGGAAUGGAUCCACAUCUACGAAUUCGUACCAUAGUAGAGGUUAUCCGCUCUACCGAGAUCGGAAGAGCACACGU
B22: target 1 insG 3' of 9,insG 3' of 6 (mixed)
RNA 1: CACCCGUGCAAAAAUGCAGGGGUCUAAAACUGAGCGGAUAACCUCUCUAUGG
RNA 2: GGGAAUGGAUCCACAUCUACGAAUUCGUACCAUAGAGAGGUUAGUCCGGCUCACCGAGAUCGGAAGAGCACACGU
B23: target 1 C7A,A18U (mixed)
RNA 1: CACCCGUGCAAAAAUGCAGGGGUCUAAAACUGAGCGGAUAACCUCUCUAUGG
RNA 2: GGGAAUGGAUCCACAUCUACGAAUUCGUACCAUUGAGAGGUUAUACGCUCACCGAGAUCGGAAGAGCACACGU
B24: target 1 insU 3' of 21,insG 3' of 20 (mixed)
RNA 1: CACCCGUGCAAAAAUGCAGGGGUCUAAAACUGAGCGGAUAACCUCUCUAUGG
RNA 2: GGGAAUGGAUCCACAUCUACGAAUUCGUACCUAGUAGAGAGGUUAUCCGCUCACCGAGAUCGGAAGAGCACACGU
B25: target 1 A9G,U10A (mixed)
RNA 1: CACCCGUGCAAAAAUGCAGGGGUCUAAAACUGAGCGGAUAACCUCUCUAUGG
RNA 2: GGGAAUGGAUCCACAUCUACGAAUUCGUACCAUAGAGAGGUAGUCCGCUCACCGAGAUCGGAAGAGCACACGU
B26: target 1 G5C,G17U (mixed)
RNA 1: CACCCGUGCAAAAAUGCAGGGGUCUAAAACUGAGCGGAUAACCUCUCUAUGG
RNA 2: GGGAAUGGAUCCACAUCUACGAAUUCGUACCAUAUAGAGGUUAUCCCCUCACCGAGAUCGGAAGAGCACACGU
B27: target 1 insA 3' of 19,insA 3' of 6 (mixed)
RNA 1: CACCCGUGCAAAAAUGCAGGGGUCUAAAACUGAGCGGAUAACCUCUCUAUGG
RNA 2: GGGAAUGGAUCCACAUCUACGAAUUCGUACCAUAAGAGAGGUUAUCCAGCUCACCGAGAUCGGAAGAGCACACGU
B28: target 1 C4G,U19A (mixed)
RNA 1: CACCCGUGCAAAAAUGCAGGGGUCUAAAACUGAGCGGAUAACCUCUCUAUGG
RNA 2: GGGAAUGGAUCCACAUCUACGAAUUCGUACCAAAGAGAGGUUAUCCGGUCACCGAGAUCGGAAGAGCACACGU

The binders below were run against T1, EsCas13d, nuclease-dead (assay: crRNA (strand 1, pre-loaded); Mg2+; 40 mM Tris-HCl pH 7.5, 150 mM NaCl, 6 mM MgCl2, 1 mM DTT, 0.1% Tween-20, 0.2 mg/ml BSA; 25 C; 10 min per concentration, then washed). Conditions: tags: His6-TwinStrep-SUMO cleaved; N-terminal SNAP kept (SNAP-Surface 488); label: 3' end held by stalled T7 RNA polymerase.
In the case of B1, the Kd is reported as 14.6 ± 0.6 nM. Work on B2 yielded a Kd of 13.9 ± 0.6 nM. Binder B3 has a Kd of 34 ± 10 nM. Work on B4 yielded a Kd of 31 ± 5 nM. B5 was tested, and the Kd was 35 ± 4 nM. Work on B6 yielded a Kd of 16.5 ± 1.2 nM. Binder B7 has a Kd of 7.9 ± 0.4 nM. For B8, the Kd was 41 ± 5 nM. Work on B9 yielded a Kd of 6.5 ± 0.4 nM. B10 gave a Kd of 29.8 ± 2.8 nM. For B11, the Kd was 28.2 ± 2.9 nM. In the case of B12, the Kd is reported as 80 ± 40 nM. In the case of B13, the Kd is reported as 86 ± 13 nM. For B14, the Kd was 7.9 ± 0.4 nM. B15 was tested, and the Kd was 17.5 ± 1.3 nM. B16 showed a Kd of 63 ± 31 nM. B17 gave a Kd of 51 ± 8 nM. Work on B18 yielded a Kd of 9.4 ± 0.6 nM. In the case of B19, the Kd is reported as 58 ± 10 nM. B20 gave a Kd of 30.1 ± 1.5 nM. For B21, the Kd was 15.1 ± 2.2 nM. Work on B22 yielded a Kd of 11.2 ± 1.2 nM. B23 showed a Kd of 36.4 ± 2.8 nM. In the case of B24, the Kd is reported as 40 ± 11 nM. Work on B25 yielded a Kd of 15.5 ± 0.6 nM. With B26 the Kd was 28.1 ± 2 nM. Work on B27 yielded a Kd of 23.2 ± 0.9 nM. For B28, the Kd was 51 ± 18 nM.
